pKd: −log10 of the molar value.
Key:
[1] = system: PRC2-PALI1 PIR-long (Homo sapiens), Q15910-2+O75530+Q15022+Q09028+Q96JN0-3; assay: EMSA; settings: 50 mM Tris-HCl pH 7.5 (25 C), 100 mM KCl, 2 mM 2-mercaptoethanol, 0.1 mg/mL BSA, 0.05% NP-40; FA at 30 C; nucleosome EMSA with 5% glycerol at 4 C (+5 ng/uL …)
[2] = system: PRC2 core (EZH2-EED-SUZ12-RBBP4) (Homo sapiens), Q15910-2+O75530+Q15022+Q09028; assay: EMSA; settings: 50 mM Tris-HCl pH 7.5 (25 C), 100 mM KCl, 2 mM 2-mercaptoethanol, 0.1 mg/mL BSA, 0.05% NP-40; FA at 30 C; nucleosome EMSA with 5% glycerol at 4 C (+5 ng/uL …)
PRC2 core (EZH2-EED-SUZ12-RBBP4) (Homo sapiens), Q15910-2+O75530+Q15022+Q09028, sequence (Q15910 other isoform, or with tags, fused parts or gaps, chain 1 of 4): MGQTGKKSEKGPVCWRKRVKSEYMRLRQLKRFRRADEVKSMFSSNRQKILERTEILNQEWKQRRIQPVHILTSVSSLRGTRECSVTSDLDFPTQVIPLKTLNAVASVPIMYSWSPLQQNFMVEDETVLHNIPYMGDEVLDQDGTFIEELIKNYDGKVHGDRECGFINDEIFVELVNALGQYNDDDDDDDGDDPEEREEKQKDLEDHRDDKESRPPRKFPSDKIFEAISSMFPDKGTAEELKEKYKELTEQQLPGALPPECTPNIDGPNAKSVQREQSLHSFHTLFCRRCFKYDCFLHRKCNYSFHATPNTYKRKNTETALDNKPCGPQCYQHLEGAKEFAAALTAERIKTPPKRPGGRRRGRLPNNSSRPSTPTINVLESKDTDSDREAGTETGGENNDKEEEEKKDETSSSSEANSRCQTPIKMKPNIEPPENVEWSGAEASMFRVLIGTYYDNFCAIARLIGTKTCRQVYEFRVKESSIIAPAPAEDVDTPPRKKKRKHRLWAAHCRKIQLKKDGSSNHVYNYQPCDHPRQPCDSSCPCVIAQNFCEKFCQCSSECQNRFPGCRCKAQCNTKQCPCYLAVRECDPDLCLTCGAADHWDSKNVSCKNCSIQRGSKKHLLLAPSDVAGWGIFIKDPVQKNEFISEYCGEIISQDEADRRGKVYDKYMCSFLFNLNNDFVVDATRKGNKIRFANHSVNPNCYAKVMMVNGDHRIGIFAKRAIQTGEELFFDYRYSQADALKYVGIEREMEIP
PRC2 core (EZH2-EED-SUZ12-RBBP4) (Homo sapiens), Q15910-2+O75530+Q15022+Q09028, sequence (O75530 whole entry, chain 2 of 4, the tested form may be a part): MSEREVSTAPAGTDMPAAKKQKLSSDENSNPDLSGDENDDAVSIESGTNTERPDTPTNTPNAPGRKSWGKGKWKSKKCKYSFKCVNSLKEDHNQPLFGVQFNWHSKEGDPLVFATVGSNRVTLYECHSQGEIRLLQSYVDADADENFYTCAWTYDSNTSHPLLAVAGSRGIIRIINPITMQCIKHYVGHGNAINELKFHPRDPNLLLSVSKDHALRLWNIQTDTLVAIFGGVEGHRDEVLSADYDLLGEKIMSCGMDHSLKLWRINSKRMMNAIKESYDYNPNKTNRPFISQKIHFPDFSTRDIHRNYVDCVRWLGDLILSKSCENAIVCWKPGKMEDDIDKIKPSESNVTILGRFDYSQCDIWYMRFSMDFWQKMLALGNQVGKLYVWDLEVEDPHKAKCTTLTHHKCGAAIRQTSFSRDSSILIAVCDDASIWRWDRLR
PRC2 core (EZH2-EED-SUZ12-RBBP4) (Homo sapiens), Q15910-2+O75530+Q15022+Q09028, sequence (Q15022 whole entry, chain 3 of 4, the tested form may be a part): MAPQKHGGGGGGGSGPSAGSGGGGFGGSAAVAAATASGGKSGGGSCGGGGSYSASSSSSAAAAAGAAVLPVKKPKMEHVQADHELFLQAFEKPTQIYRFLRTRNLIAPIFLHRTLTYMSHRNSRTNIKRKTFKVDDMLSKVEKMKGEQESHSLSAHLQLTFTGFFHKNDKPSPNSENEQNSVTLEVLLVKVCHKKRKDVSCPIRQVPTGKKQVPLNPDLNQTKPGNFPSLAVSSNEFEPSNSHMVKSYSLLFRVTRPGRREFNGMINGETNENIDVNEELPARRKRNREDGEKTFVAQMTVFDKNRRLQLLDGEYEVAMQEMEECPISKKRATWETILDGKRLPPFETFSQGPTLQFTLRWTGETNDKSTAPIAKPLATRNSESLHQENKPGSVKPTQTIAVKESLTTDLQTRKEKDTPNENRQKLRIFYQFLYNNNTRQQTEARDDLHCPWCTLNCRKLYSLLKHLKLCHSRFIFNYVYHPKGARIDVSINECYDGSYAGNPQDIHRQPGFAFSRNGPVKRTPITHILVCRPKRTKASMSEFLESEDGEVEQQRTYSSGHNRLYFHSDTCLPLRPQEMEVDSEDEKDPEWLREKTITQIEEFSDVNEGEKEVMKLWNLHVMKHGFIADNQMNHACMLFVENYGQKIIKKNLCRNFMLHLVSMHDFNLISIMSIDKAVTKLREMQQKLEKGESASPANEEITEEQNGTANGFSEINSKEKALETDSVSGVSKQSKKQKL
PRC2 core (EZH2-EED-SUZ12-RBBP4) (Homo sapiens), Q15910-2+O75530+Q15022+Q09028, sequence (Q09028 whole entry, chain 4 of 4, the tested form may be a part): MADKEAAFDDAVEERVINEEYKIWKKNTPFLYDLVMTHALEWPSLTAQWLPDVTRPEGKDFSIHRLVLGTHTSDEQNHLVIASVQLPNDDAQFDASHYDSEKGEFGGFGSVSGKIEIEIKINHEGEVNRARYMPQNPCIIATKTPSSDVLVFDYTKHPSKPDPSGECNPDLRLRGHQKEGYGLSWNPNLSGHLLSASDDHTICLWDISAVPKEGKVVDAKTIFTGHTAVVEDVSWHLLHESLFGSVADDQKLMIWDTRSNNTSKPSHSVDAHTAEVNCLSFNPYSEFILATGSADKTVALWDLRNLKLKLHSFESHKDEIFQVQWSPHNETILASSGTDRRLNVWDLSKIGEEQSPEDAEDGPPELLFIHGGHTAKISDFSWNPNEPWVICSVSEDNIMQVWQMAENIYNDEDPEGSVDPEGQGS

[3] = target: EED (amino acids 40-441) (human) (UniProt O75530); assay: fluorescence polarisation; fluorescence anisotropy displacement titration: 2-fold serial dilutions of unlabelled peptide with 10 µM EED and 40 nM 5-FAM labelled JARID2-K116me3 peptide; same buffer, 30 °C; Kd of the unlabelled peptide from a fit
EED (amino acids 40-441) (human), sequence (O75530 40-441): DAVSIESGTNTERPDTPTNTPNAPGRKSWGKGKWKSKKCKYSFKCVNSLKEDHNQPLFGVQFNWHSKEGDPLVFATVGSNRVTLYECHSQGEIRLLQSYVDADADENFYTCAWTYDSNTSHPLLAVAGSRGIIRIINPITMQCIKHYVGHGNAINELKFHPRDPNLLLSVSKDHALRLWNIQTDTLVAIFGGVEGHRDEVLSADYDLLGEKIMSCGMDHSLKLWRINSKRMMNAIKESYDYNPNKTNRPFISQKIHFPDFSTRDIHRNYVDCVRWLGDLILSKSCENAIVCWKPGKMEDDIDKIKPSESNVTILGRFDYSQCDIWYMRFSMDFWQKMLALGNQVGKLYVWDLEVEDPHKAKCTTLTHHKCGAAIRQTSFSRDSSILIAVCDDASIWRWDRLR

[4] = system: PRC2-PALI1 PIR (Homo sapiens), Q15910-2+O75530+Q15022+Q09028+Q96JN0-3; assay: EMSA; settings: 50 mM Tris-HCl pH 7.5 (25 C), 100 mM KCl, 2 mM 2-mercaptoethanol, 0.1 mg/mL BSA, 0.05% NP-40; FA at 30 C; nucleosome EMSA with 5% glycerol at 4 C (+5 ng/uL …)

Row | Substance | pKd [2] | pKd [4] | also measured
1 | ACCTCGCGAATGCATCTAGATGATATCGAGAATCCCGGTGCCGAGGCCGCTCAATTGGTCGTAGACAGCTCTAGCACCGCTTAAACGCACGTACGCGCTGTCCCCCGCGTTTTAACCGCCAAGGGGATTACTCCCTAGTCTCCAGGCACGTGTCAGATATATACATCCGATATCGGCGCCCT (double strand) [mononucleosome 182 bp, Cy5-DNA] | 6.48 | – | pKd [1]: 7.72
2 | PALI1-K1214me3 peptide | – | – | fold lower affinity than PALI1-K1219me3 and PALI1-K1241me3 [3]: 4 fold
3 | ACCTCGCGAATGCATCTAGATGATATCGAGAATCCCGGTGCCGAGGCCGCTCAATTGGTCGTAGACAGCTCTAGCACCGCTTAAACGCACGTACGCGCTGTCCCCCGCGTTTTAACCGCCAAGGGGATTACTCCCTAGTCTCCAGGCACGTGTCAGATATATACATCCGATATCGGCGCCCT (double strand) [NCP182, H2A-Cy5] | 5.85 | 7.77 | –
4 | CTGGAGAATCCCGGTGCCGAGGCCGCTCAATTGGTCGTAGACAGCTCTAGCACCGCTTAAACGCACGTACGCGCTGTCCCCCGCGTTTTAACCGCCAAGGGGATTACTCCCTAGTCTCCAGGCACGTGTCAGATATATACATCCTGT (double strand) [NCP147, H2A-Cy5] | 5.59 | 7.31 | –
5 | PALI2-K1558me3 peptide | – | – | pKd [3]: 5.06
